Usually Ki stands for the equilibrium dissociation constant of an inhibitor or competing ligand from its target. Low values mean a stronger hold on the target, high ones a looser hold on the target.

The target of this assay is CCR5 expressed in HEK 293T cells (HEK-CCR5 cells) (UniProt P51681). Put plainly: radioligand binding.
Chain of UniProt P51681 (P51681 whole entry): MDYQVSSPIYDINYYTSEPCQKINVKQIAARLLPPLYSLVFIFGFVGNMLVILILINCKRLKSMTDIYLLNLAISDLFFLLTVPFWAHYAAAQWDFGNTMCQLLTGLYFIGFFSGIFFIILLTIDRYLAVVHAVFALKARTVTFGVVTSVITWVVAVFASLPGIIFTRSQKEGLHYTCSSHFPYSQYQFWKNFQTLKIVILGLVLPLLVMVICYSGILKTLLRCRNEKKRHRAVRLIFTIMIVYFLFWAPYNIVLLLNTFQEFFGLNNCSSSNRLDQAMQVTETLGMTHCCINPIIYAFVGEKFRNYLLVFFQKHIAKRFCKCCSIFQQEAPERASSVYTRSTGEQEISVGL

In the case of “gp120 from the R5 HIV-1 primary strain Bx08 (natural protein)”, the Ki came out at 6.3 nM.

The record behind these values is publication PMC4470041.
